Experimental data from publication PMC3476979.

Each substance was assayed against endogenous phospho-IKKα/β, O15111;O14920 (assay: co-immunoprecipitation (IP with anti-Tax mab, blot with anti-phospho-IKK), band quantified as Phospho-IKK/Tax). Settings: 293 T cells, parent: 100.

Going from “wild-type Tax protein of Human T-lymphotropic virus type 1 (HTLV-1), C-terminal 6His tag (Tax-His) (from UniProt P03409) K1-10R” to “wild-type Tax protein of Human T-lymphotropic virus type 1 (HTLV-1), C-terminal 6His tag (Tax-His) (from UniProt P03409) M22”, the percent of parent falls from 3 % WT to under 1 % WT.

Going from “wild-type Tax protein of Human T-lymphotropic virus type 1 (HTLV-1), C-terminal 6His tag (Tax-His) (from UniProt P03409) K6-8R” to “wild-type Tax protein of Human T-lymphotropic virus type 1 (HTLV-1), C-terminal 6His tag (Tax-His) (from UniProt P03409) K4-8R”, the percent of parent falls from 10 % WT to 2 % WT.

Going from “wild-type Tax protein of Human T-lymphotropic virus type 1 (HTLV-1), C-terminal 6His tag (Tax-His) (from UniProt P03409) K7-8R” to “wild-type Tax protein of Human T-lymphotropic virus type 1 (HTLV-1), C-terminal 6His tag (Tax-His) (from UniProt P03409) P79A; Q81A”, the percent of parent rises from 27 % WT to 84 % WT.

“wild-type Tax protein of Human T-lymphotropic virus type 1 (HTLV-1), C-terminal 6His tag (Tax-His) (from UniProt P03409) K7R” gave a percent of parent of 95 % WT.
